Experimental data taken from the DeepSol protein solubility set.

Test: soluble on expression in E. coli; label from the status in PepcDB or PDB records

Sequence	soluble on expression in E. coli
MGSDKIHHHHHHMLKIGLLWHSTTSDNLGVGALTEAQISIINKAAVQAGVEVEYRIFGTNGNKDYFEGNPLIERGTNVSLKRILIGASDYPKKIRECDVVFDIGEGDSFADIYGFSRFLIQIVSKLVVLFQRKPLILSPQTIGPFESRFNLKVANNVMQRCTKIFVRDGLSFGYLQKNNLSVNAEEVIDVAFRLPFQRPSRDSSKVKIGLNVSGLLYNGGYTGKNQFGLSVNYPELTRSLLDQFTRIEGCEVWLVPHVLTTSFPIEDDVNVCVQLQELYPAAKLAPSFSSPSQAKSFISGMDFFLGARMHACIAAFSSGVPVVPLAYSRKFNGLFSALDYPYLGDCKVNTNEQIVGLVMDCFNSREQLKFAVEEGNKIAEKKLLRYEQYIAELLTRISNKKIVL	not soluble
MSLNYRHAFHAGNFADLHKHAILLAMLSALQEKSPALAVIDTHAGAGGYDLAGEMARRSGEAQAGIFRLKAAADAPAVFQPLLNAITQMNGGKDGDLYPGSPRLMARALRGADRYVGCELRDDDADLLRKTLAPCANARALQADGFDTAVKDAGKGGRAFIVIDPPFERPDDYDRIVATTRAVLARAPDAALAIWLPIKDLETFDAFLRAMETVTSDLLVAELRLRPLTDPMKMNGCAMVMIGAPPSVEDAAVAAGDWIATRLGEPGGRSRVWRTEGHHHHHH	soluble
MPIKVKYYGNVVFASDAVCGQAENYATLKAMKEVGNYTISIQTFENAENVYPEEFLAKPVADEHYLTTEDGSVGIKGHYLDIVKELIEKDKVDIIFAGGKLGSLAKLAELTRPYGIPTLEHHHHHH	not soluble
SEESRESPAEHGYYMPAEWDSHAQTWIGWPERQDNWRHNALPAQRVFAGVAKAISKFEPVTVCASPAQWENARKQLPEDIRVVEMSMNDSWFRDSGPTFIVRKRPVKLSSLNRNIAGIDWNFNAWGGANDGCYNDWSHDLLVSRKILALERIPRFQHSMILEGGSIHVDGEGTCLVTEECLLNKNRNPHMSKEQIEEELKKYLGVQSFIWLPRGLYGDEDTNGHIDNMCCFARPGVVLLSWTDDETDPQYERSVEALSVLSNSIDARGRKIQVIKLYIPEPLYMTEEESSGITQDGEAIPRLAGTRLAASYVNFYIANGGIIAPQFGDPIRDKEAIRVLSDTFPHHSVVGIENAREIVLAGGNIHCITQQQPAEPTSVAENGH	soluble
MALVIAGERSGVGKTTVTLTLLASLCRRSAIVQSFKVGPDYIDPMFHTYVTGRACRNLDPVLTSEAYVQQCFARHYQESEYALVEGVMGLFDGIGRQEAGGQGAGGRENNFSTSHSALTTDFASTAHVARLLDLPVVLVIDCSRLSGSVAAIAHGYCSFDPRIKMAGVVLNRVGSDRHLSLLQDALKPLQLPILGVLRRQDDITIPDRHLGLIPTAELPELNAVINRLADLGDTCFDWQNLLPLLQAKEVGGREQGAGSRGQGAGEAGEAGGELTARFSPNPQSPIPNPQSPVPHPPKIAVARDRAFNFYYQDNLDLLQQLGAELVFWSPLTDGELPSGVRGMYFGGGFPEVFASQLAENSSARDAVKQAILAGMPTIAECGGLMYLCEQIIDFEGQSWPMVGVLPTSAAMGGRLTLGYRRAVALQDSLLVNVGTHIYGHEFHRSRLITAPTQPLFETYRYDCPENMGCEGWGFPKNIHASYVHLHWGESGEIPRQFIQQCAYFGETIDLVHMYLEHHHHHH	not soluble
SLTGAVDKLTLIHYNDVYNIDANSKSEPIGGAARFCTAVRSFSHLNPLVLFSGDAFSPSMLSTFTKGEQMIPVLNTVGTHCAVFGNHDFDHGLDILNEWVEKTNFPWLMSNVVDNETGRPLGGGKITHIMHHNEVKVGLIGLVEKEWLDTLPTIDPNEVTYIDFIKAGNQLADELHNQGCDIIIALTHMRTPNDIELAKHSGHIDLILGGHDHVYEILNIDDTHVIKSGTDFRQFSKIGISLNRNQNGKININVEKVDVNSTKYSEDSELKNELKKYSETIESKMDEVLGTFAVELDGRFSAIRTSETNLGNWICDVALAATGADCVIINSGTFRSDQIHPAGPFTMRDLINIIPMQDPLIVLEVTGKILHQALENSVSTYPKLEGRFPQIAGMSFVFDPTKKAGERVEPKLIRLGDEWLNLEQTYTLCVKSYIYGGCDGYNMFKECRVLMDDDAAPELGLAIQNHFKAIDVRLGK	soluble
MKLRHLPLIAAIGLFSTVTLAAGYTGPGATPTTTTVKAALEAADDTPVVLQGTIVKRIKGDIYEFRDATGSMKVEIDDEDFPPMEINDKTRVKLTGEVDRDLVGREIDVEFVEVIK	not soluble
MGKLNLYQMKKVEIIVRGEDLDFVLDLLEKAGVKGYTIIHNLSGKGSHGFHEGHLLFNEEDVLDMVISVMPEEKVEAILEGLTPFFNKHSGVVFVSDVQVSRLEKFKNG	not soluble
